Assay [1] has as its target T1, RamBPd (Pden_1365) (Paracoccus denitrificans, UniProt A1B1S2).
T1 construct: purified RamBPd, His-SUMO tag cleaved off
T1 sequence (A1B1S2 1-477): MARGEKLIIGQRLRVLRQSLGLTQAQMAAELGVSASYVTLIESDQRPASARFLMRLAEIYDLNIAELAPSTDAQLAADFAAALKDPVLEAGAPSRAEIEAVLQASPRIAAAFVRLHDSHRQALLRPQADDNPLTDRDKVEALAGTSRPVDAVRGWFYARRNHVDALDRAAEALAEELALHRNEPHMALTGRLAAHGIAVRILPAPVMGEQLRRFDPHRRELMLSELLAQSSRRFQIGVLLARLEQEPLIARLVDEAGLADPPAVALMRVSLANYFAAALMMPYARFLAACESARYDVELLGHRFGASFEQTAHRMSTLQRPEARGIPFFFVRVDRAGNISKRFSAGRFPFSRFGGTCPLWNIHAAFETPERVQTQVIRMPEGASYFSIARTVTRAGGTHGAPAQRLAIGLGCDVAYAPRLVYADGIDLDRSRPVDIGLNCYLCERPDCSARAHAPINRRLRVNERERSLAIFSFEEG
In words: mass photometry titration (tetramer to dimer shift; saturation at […], […] dimer to tetramer). The assay is classed as binding.

The target of assay [2] is RamBPd (Pden_1365), regulator of acetate metabolism of Paracoccus denitrificans Pd1222 (Paracoccus denitrificans Pd1222). The assay is described as follows: mass photometry; 250 nM RamBPd in PBS (pH 7.4), no supplement; Refeyn One mass photometer.
For assay [3] the target is unchanged. In words: mass photometry; 250 nM RamBPd in PBS (pH 7.4), pre-incubated for 35 min with rising concentrations of free CoA or of a CoA ester (ethylmalonyl-, methylsuccinyl-, mesaconyl-, crotonyl-, beta-methylmalyl-CoA); tetramer to dimers.
The target of assay [4] is T1, RamBPd (Pden_1365). The assay is described as follows: mass photometry titration (tetramer to dimer shift). It is filed as binding.

On to `CC(C)(COP(=O)(O)OP(=O)(O)OC[C@H]1O[C@@H](n2cnc3c(N)ncnc32)[C@H](O)[C@@H]1OP(=O)(O)O)[C@@H](O)C(=O)NCCC(=O)NCCS` [CoA], for which, at RamBPd (Pden_1365) [1], the “mass photometry titration (tetramer to dimer shift); saturation at 62.5 μM, 1:1 d” value is listed as “tetrameric RamBPd complex dissociates into a dimer upon the addition of CoA”.
The term stoichiometry N denotes a count of units in the complex or per binding partner. The compound “RamBPd (Pden_1365), regulator of acetate metabolism of Paracoccus denitrificans Pd1222 (natural protein)” showed a stoichiometry N in assay [2] of 4. Moreover, in assay [3], the ratio of dimer to tetramer at saturation with 62.5 uM free CoA (dimer:tetramer) stood at 1, the ratio of dimers to tetramers with beta-methylmalyl-CoA (dimer:tetramer) is 9, the ratio of dimers to tetramers with crotonyl-CoA (dimer:tetramer) came out at 3 and the ratio of dimers to tetramers with mesaconyl-CoA (dimer:tetramer) came to 3. Moreover, the stoichiometry N in assay [3] was found to be 2.
One may read the Kd as the concentration at which binding is half-saturated. `C[C@@H](C(=O)SCCNC(=O)CCNC(=O)[C@H](O)C(C)(C)COP(=O)(O)OP(=O)(O)OC[C@H]1O[C@@H](n2cnc3c(N)ncnc32)[C@H](O)[C@@H]1OP(=O)(O)O)[C@H](O)C(=O)O` [β-methylmalyl-CoA]: the Kd at RamBPd (Pden_1365) [4] is roughly 700 µM.

The record behind these values is article PMC10370305, “Functional Degeneracy in Paracoccus denitrificans Pd1222 Is Coordinated via RamB, Which Links Expression of the Glyoxylate Cycle to Activity of the Ethylmalonyl-CoA Pathway” (Applied and Environmental Microbiology, 2023).
